Test results taken from article PMC7280789, “Isotype Switching Converts Anti-CD40 Antagonism to Agonism to Elicit Potent Antitumor Activity” (Cancer Cell, 2020).
Each block holds one binder with its values, some of them ahead of it.

What was measured:
[1] = biological target: T1, full-length hCD40 expressed on CHO-k1 cells (Homo sapiens, UniProt P25942); assay: flow cytometry on cells; CHO-k1 cells expressing full-length hCD40 or truncated variants CRD2-4 or CRD3-4 incubated with 10 μg/mL anti-CD40 mAb; bound mAb detected by anti-human Fc-PE; details: one partner purified
T1 construct: CD40, human; results call it the full-length CD40 molecule; methods: wild-type full-length extracellular (EC) domain (CRD1-4) cloned into pCIpuro that contains the CD40 transmembrane domain for membrane anchoring; also called full-length CD40 molecule; CRD1-4; source: CHO-k1, stably transfected (pCIpuro), on cells

[2] = biological target: T2, hCD40 truncated variant CRD2-4 expressed on CHO-k1 cells (Homo sapiens, UniProt P25942, point mutant); assay: as above; details: one partner purified
T2 construct: CD40, human, truncated variant CRD2-4 (lacks CRD1), with the CD40 transmembrane domain of the vector; source: CHO-k1, stably transfected (pCIpuro), on cells

[3] = biological target: T3, hCD40 truncated variant CRD3-4 expressed on CHO-k1 cells (Homo sapiens, UniProt P25942, point mutant); assay: as above; details: one partner purified
T3 construct: CD40, human, truncated variant CRD3-4 (lacks CRD1 and CRD2), with the CD40 transmembrane domain of the vector; source: CHO-k1, stably transfected (pCIpuro), on cells

[4] = biological target: T4, His-tagged recombinant soluble full-length extracellular domain (EC) of hCD40 (Homo sapiens, UniProt P25942); assay: far-Western, overlay or dot blot; western blot: His-tagged recombinant CD40 proteins run on 18% polyacrylamide gels, transferred to nitrocellulose, incubated with the anti-CD40 mAb at 4°C overnight, detected with goat anti-human IgG-HRP; details: both partners purified
T4 construct: CD40, human, wild-type full-length extracellular (EC) domain (CRD1-4); Used in the western blot and, as 'hCD40 EC domain', in the SEC/SEC-SAXS complex with 341G2 F(ab); also called hCD40 EC domain; CD40EC; source: FreeStyle 293F, transfected (pcDNA3.1), purified from supernatant (Ni-NTA)

[5] = biological target: T4, His-tagged recombinant soluble …; assay: SEC; 341G2 F(ab) and hCD40 EC domain mixed at a 1:1 molar ratio for 1 hour, complex purified by SEC; then SEC-SAXS on Superdex 200 increase 3.2/200 in PBS, 20°C; details: both partners purified
CD40 on Ramos cells = biological target: T5, CD40 on Ramos cells (Homo sapiens (Ramos cells), UniProt P25942); assay: flow cytometry on cells; Ramos cells incubated with a fixed concentration of CD40L and various concentrations of anti-CD40 mAbs; remaining bound CD40L detected by anti-FLAG-APC; details: one partner purified
T5 construct: CD40 on the surface of Ramos cells; also called CD40-expressing Ramos cells; source: endogenous, on Ramos cells

[6] = biological target: T6, hCD40 (immobilised for SPR) (Homo sapiens, UniProt P25942); assay: SPR; Biacore T100; hCD40 immobilised on a CM5 chip by amine coupling; mAbs injected at 250, 50, 10, 2, 0.4 and 0 nM in HBS-EP+, 30 μL/min, 300 s association, 300 s dissociation; 1:1 Binding model; details: both partners purified
T6 construct: CD40, human
T6 sequence (P25942 21-277): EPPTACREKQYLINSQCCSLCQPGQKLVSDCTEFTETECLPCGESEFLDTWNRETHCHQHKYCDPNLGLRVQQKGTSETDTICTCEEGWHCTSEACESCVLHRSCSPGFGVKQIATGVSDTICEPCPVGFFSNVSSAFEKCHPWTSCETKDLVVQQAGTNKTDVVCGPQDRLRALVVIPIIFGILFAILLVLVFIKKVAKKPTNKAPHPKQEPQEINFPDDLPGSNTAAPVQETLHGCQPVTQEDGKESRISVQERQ

T5 sequence (P25942 21-277): as above
T4 sequence (P25942 21-193): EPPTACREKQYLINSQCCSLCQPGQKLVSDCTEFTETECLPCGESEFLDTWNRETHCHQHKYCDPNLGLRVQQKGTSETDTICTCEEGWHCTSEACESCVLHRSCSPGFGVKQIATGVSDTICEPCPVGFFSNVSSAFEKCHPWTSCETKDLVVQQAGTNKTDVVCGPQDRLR
T3 sequence (P25942 whole entry, looked up, change not shown, the tested form may be a part): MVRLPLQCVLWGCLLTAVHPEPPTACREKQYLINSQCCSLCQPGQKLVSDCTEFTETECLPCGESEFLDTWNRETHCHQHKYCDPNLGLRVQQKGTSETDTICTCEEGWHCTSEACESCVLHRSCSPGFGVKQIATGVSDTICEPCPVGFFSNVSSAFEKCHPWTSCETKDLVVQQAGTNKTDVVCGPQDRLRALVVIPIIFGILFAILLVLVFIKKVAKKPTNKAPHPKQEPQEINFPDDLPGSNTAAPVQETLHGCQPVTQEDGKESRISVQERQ
T1 sequence (P25942 whole entry, looked up, the tested form may be a part): as the sequence (P25942 whole entry, looked up, change not shown, the tested form may be a part) above
T2 sequence (P25942 whole entry, looked up, change not shown, the tested form may be a part): as above

B1: 341G2 (anti-CD40 mAb; isotype not stated for these experiments) (antibody, V domains shown)
VH: QVQLQQSGPGLVKPSQTLSLTCAISGDSVSSNSATWNWIRQSPSRDLEWLGRTYYRSKWYRDYVGSVKSRIIINPDTSNNQFSLQLNSVTPEDTAIYYCTRAQWLGGDYPYYYSMDVWGQGTTVTVSS
VL: EIVLTQSPATLSLSPGERATLSCRASQSVSSYLAWYQQKPGQAPRLLIYDASNRATGIPARFSGSGSGTDFTLTISSLEPEDFAVYYCQQRSNTFGPGTKVDIK
notes: 341G2 heavy chain; 341G2 light chain; also called bleselumab; source: produced either from hybridoma cells or by transient expression in CHO cells, purified on protein A columns; copies: 2 + 2
binding result [1]: binds
binding result [2]: no binding (tested: 10 μg/mL)
binding result [3]: no binding (tested: 10 μg/mL)
binding result [4]: binds

B2: 341G2 F(ab) (Fab, V domains shown)
VH: QVQLQQSGPGLVKPSQTLSLTCAISGDSVSSNSATWNWIRQSPSRDLEWLGRTYYRSKWYRDYVGSVKSRIIINPDTSNNQFSLQLNSVTPEDTAIYYCTRAQWLGGDYPYYYSMDVWGQGTTVTVSS
VL: EIVLTQSPATLSLSPGERATLSCRASQSVSSYLAWYQQKPGQAPRLLIYDASNRATGIPARFSGSGSGTDFTLTISSLEPEDFAVYYCQQRSNTFGPGTKVDIK
notes: may stand in the SASBDB entry of the CD40-341G2 F(ab) complex; may stand in SASBDB SASDHN8; also called F(ab) fragment of 341G2 hIgG1; source: digestion of 341G2 hIgG1 with papain-agarose, protein A depletion of IgG1 and Fc, purified by SEC
binding result [5]: binds

Second part, the binder after the results:

binding result (CD40 on Ramos cells): binds
B3: 341G2 hIgG1 (antibody, V domains shown)
VH: QVQLQQSGPGLVKPSQTLSLTCAISGDSVSSNSATWNWIRQSPSRDLEWLGRTYYRSKWYRDYVGSVKSRIIINPDTSNNQFSLQLNSVTPEDTAIYYCTRAQWLGGDYPYYYSMDVWGQGTTVTVSS
VL: EIVLTQSPATLSLSPGERATLSCRASQSVSSYLAWYQQKPGQAPRLLIYDASNRATGIPARFSGSGSGTDFTLTISSLEPEDFAVYYCQQRSNTFGPGTKVDIK
notes: 341G2 heavy chain variable domain; human IgG1 heavy chain constant region (pEE6.4 vector encoding the isotype); may stand in SASBDB SASDHN8; IgG1; also called 341G2 h1; hIgG1 variant of 341G2; source: produced either from hybridoma cells or by transient expression in CHO cells, purified on protein A columns; copies: 2 + 2

binding result (CD40 on Ramos cells): binds
binding result [6]: binds
B4: 341G2 hIgG4 (parental 341G2) (antibody, V domains shown)
VH: QVQLQQSGPGLVKPSQTLSLTCAISGDSVSSNSATWNWIRQSPSRDLEWLGRTYYRSKWYRDYVGSVKSRIIINPDTSNNQFSLQLNSVTPEDTAIYYCTRAQWLGGDYPYYYSMDVWGQGTTVTVSS
VL: EIVLTQSPATLSLSPGERATLSCRASQSVSSYLAWYQQKPGQAPRLLIYDASNRATGIPARFSGSGSGTDFTLTISSLEPEDFAVYYCQQRSNTFGPGTKVDIK
notes: 341G2 heavy chain variable domain; human IgG4 heavy chain constant region (pEE6.4 vector encoding the isotype); may stand in SASBDB SASDHN8; IgG4; also called 341G2 h4; bleselumab; source: produced either from hybridoma cells or by transient expression in CHO cells, purified on protein A columns; copies: 2 + 2
